# Fewer inactive variants are shown than the library holds.
# B1: TPR 5TU (parent)
# chain: GGAUCUUCUCGAUCUAACAAAAAAGACAAAUCUGCCACAAAGCUUGAGAGCAUCUUCGGAUGCAGAGGCGGCAGCCUUCGGUGGCGCGAUAGCGCCAACGUUCUCAACUAUGACACGCAAAACGCGUGCUCCGUUGAAUGGAGUUUAUCAUG
# Variants of: B1
# Assay: polymerase ribozyme fitness, log enrichment relative to wild type (log ratio); higher = more active; in vitro selection for triplet polymerase activity
# How it was run: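 Mutant libraries for each subunit of a heterodimeric triplet polymerase ribozyme were made by PCR and then transcribed. Each library underwent one round of in vitro selection in triplicate: annealing with a biotinylated primer, the partner subunit and triplets, frozen incubation at −7 °C, gel excision of extended constructs, streptavidin-bead capture and RT-PCR. Input and output libraries were Illumina-sequenced, and only genotypes with ≥10 input reads and ≥1 read per output were kept. Fitness is the logarithm, base 2, of genotype enrichment over wild-type enrichment, computed from inverse-variance-weighted replicate averages.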
row,Variant,polymerase ribozyme fitness (log ratio)
1,U31A G50A C51G G59A G68C G86C G94U G124U,≤ -4.2
2,U31A C32A G59A C93G A113U A150C,≤ -4.2
3,A30G C54U G80U A91C C103U,≤ -4.2
4,U31A C57U C87U A89G G117A,-3.86
5,A30U G71C C95A,≤ -4.2
6,U31C C38G A47G C51A U56A G83C U146C U148C,≤ -4.2
7,A30U A37C G50C A91G A150G,≤ -4.2
8,U31C C43A A66C C79U C85A A120C G140U,≤ -4.2
9,U31A C85G C96G A142C,≤ -4.2
10,C32A A89C C95A,≤ -4.2
11,U31G G42C G50C C57A C79G G80C G136C,≤ -4.2
12,U31C C54U G71U C96U,-3.79
13,U31A C131A,-1.89
14,A30G C54A C85G A120U C125U G136A,≤ -4.2
15,U31A A89C,-0.512
16,C32A,-2.96
17,U31G G58C G140C,-4
18,U31A C93A A115C,-1.71
19,A30U A122U,-2.62
20,A30G U33A U55A A91C C132U A142U,≤ -4.2
21,U31A U45A A47C C93U C99G U135A,≤ -4.2
22,U31A C32G A41U G67U G80C G86C A147U,≤ -4.2
23,U31C C35G C36U C51G G92C U109A U151A,≤ -4.2
24,U31A G65U C93G U135C,≤ -4.2

row,Variant,polymerase ribozyme fitness (log ratio)
1,U31G U45A A49C G84A A113G A142C,≤ -4.2
2,A30U G42A U55G C69A G126U A142C,≤ -4.2
3,U31A C51U A73G C95G,-3.09
4,U31A C35G A66C G68U,-4.17
5,U31A A47C U56A C87U,-0.397
6,A30U C43G A47G U53G C72A G140A,≤ -4.2
7,U31A C85A,-0.724
8,A30U A52G G58A G70U C79U G83A C93U,≤ -4.2
9,U31C U101C G124A,1.05
10,U31C C96G A137U,≤ -4.2
11,A30U C79U G83C,≤ -4.2
12,U31G A52U A60G A98G,-4
13,U31A U135G G143C,-3.93
14,U31C A121C U134A,-1.76
15,U31G A122U A142C,-1.56
16,A30G G42A,≤ -4.2
17,A30U A60C G62A C76A C96G U127G G143C,≤ -4.2
18,U31G A60G G152U,-3.16
19,U31G G50A,-1.51
20,C32A A49U G68U C79G C85U U127G,≤ -4.2
21,A30U U33C A138G,≤ -4.2
22,U31C A47G A49U G94A A119G G136C,-4.04
23,A30G G71A C85G G141C,≤ -4.2
24,A30G C43G G83A,≤ -4.2

row,Variant,polymerase ribozyme fitness (log ratio)
1,U31A U55A A97U U145G,-0.219
2,U31A A52C A91U,-4.06
3,U31G G58A C85A C114G A115U,-4.05
4,U31G C125U U130A,≤ -4.2
5,A30G C54U C76G A91C,≤ -4.2
6,U31A C36A A52G C76A C95U G124A G140U U145G,≤ -4.2
7,A30U G50C C96U U104C G136U,≤ -4.2
8,U31G G59U C69A U134G G136U,-3.84
9,U31A U53G G84U C96G,≤ -4.2
10,U31A C51G,-0.943
11,A30U A49C A60U U77C U148A,≤ -4.2
12,A30G A121U,-3.39
13,A30G A121G,-3.36
14,A30U U55A G74A C79U C87A C116A,≤ -4.2
15,A30U G62U U90G C95A A107C C118A A142G,≤ -4.2
16,U31G A37U A41C C75U C76G C96U C105U G117U G133U U134C,≤ -4.2
17,A30U U55G C57A C93U,-4.13
18,U31G U148C,-2.37
19,A30U U55A G59A G70A C96G A97G,≤ -4.2
20,A30U G50C U56A A66C G141A,≤ -4.2
21,A30U G50A C57A C75U C85A G140U G143A,≤ -4.2
22,U31A U44A A52C G71U G83C G86A A97C U104A,≤ -4.2
23,U31A U56A U127C,-1.37
24,A30U C54U C85U,-3.87

row,Variant,polymerase ribozyme fitness (log ratio)
1,U31A A41U G83C U111G G136C,≤ -4.2
2,C32A C38A U56A C69U C93A A122C G126U,≤ -4.2
3,U31A C57A C87U A97C G117A A119U,1.02
4,A30G U45A A106C U135G,-3.85
5,U31C C69U G86U C96U A142G,-2.99
6,U31G C95A C123G,0.831
7,A30G C32G U56A C57G G86U A142G,≤ -4.2
8,A30U G94A,-3.7
9,A30U G94U,≤ -4.2
10,U31C A60C G92A C99A,≤ -4.2
11,U31A A91C C116A,-3.88
12,U31G C32U C75G A98G A121C G133A,≤ -4.2
13,U31C U53G G67C C76G G83A,-3.62
14,A30U A73U G74U C76G U90G U139C,≤ -4.2
15,U31G C123U,0.732
16,U31A U45A U55G C85U C95G A120G A142U,-4.06
17,A30U A52U U78A,≤ -4.2
18,A30U G84A C96U U144A,≤ -4.2
19,A30U C57A A73G G81C G92U G141A U148A,≤ -4.2
20,A30G A64G G136C,-4.07
21,U31C C87A,-4.2
22,U31C C95G,-0.224
23,A30U C35U G141U,≤ -4.2
24,U31G A89C C95G C99A,≤ -4.2

row,Variant,polymerase ribozyme fitness (log ratio)
1,U31A G59C C75U A91U U109G G112A,≤ -4.2
2,U31A A49G C105U,-0.707
3,A30U G83U G88A U109C C125U G133C,≤ -4.2
4,C32A A47U C87U,≤ -4.2
5,A30U G83U G141U,-3.89
6,A30G G48U G86U C149U,≤ -4.2
7,U31A U53A,-0.327
8,A30G G50C C51A G84A C87G G100U A121G,≤ -4.2
9,U31C U44A C54A C76G C95G C105G A107G,-4.01
10,U31G C35A G42A,≤ -4.2
11,U31C U56A G58C A98U C149U,0.414
12,A30U C32U G48A C51U U56G C76U,≤ -4.2
13,U31C A41U A115G U144G,-1.6
14,U31C G84A,0.831
15,A30U C87G U101G U146A C149G,≤ -4.2
16,A30U G68U A73U G140U,≤ -4.2
17,U31A C69A C95A C116G,-2
18,U31A C38A G50C C85U,≤ -4.2
19,C32A C51A C54A G92A A97U U146C,≤ -4.2
20,U31A G86U,-0.886
21,U31C A52C C57U G59C C99U U145G,-3.63
22,A30G G58U C118U,-3.95
23,U31A G48C C85A,-2.98
24,A30U A52G U53A U146G,≤ -4.2

row,Variant,polymerase ribozyme fitness (log ratio)
1,C32A A40C G84A,≤ -4.2
2,A30U A52C G67A G68A C87U A91G C95G U127C G143U U148G,≤ -4.2
3,A30U C85U A97U G128A G140C C149U,≤ -4.2
4,A30G G74U C95A U148G,≤ -4.2
5,A30U U44G A52C C85G A107G G126C U134A A147G,≤ -4.2
6,U31A U44A G68A G81A U104G C125A,≤ -4.2
7,U31C A37C A106U A107C,≤ -4.2
8,U31G G83U G126C,-0.857
9,U31A G50C C85U,-3.83
10,A30U U45G C93U C103G C118G,≤ -4.2
11,U31A U56A G86A A97C C105A U145C,≤ -4.2
12,A30U U82A C85A U104A,≤ -4.2
13,U31C A39C C54U A73G U90G G124A,≤ -4.2
14,U31G A40G U61A C87U G112U G141C,≤ -4.2
15,U31G C57G G58A A106G U111G G143U U144A,≤ -4.2
16,A30U A66U C85U A106C,≤ -4.2
17,U31G A40G G83C A142G,≤ -4.2
18,U31A C125A,0.0765
19,U31C A60U A110G C118G U144C,-3.59
20,U31A A66U G86U G100C,≤ -4.2
21,A30U U56A G62A G126A,-3.5
22,U31C A40C G94A,1.25
23,U31C C36A C96U A150G,≤ -4.2
24,U31C U33C G50U C76U G83C,≤ -4.2

row,Variant,polymerase ribozyme fitness (log ratio)
1,A30U U55A,-2.96
2,U31G C99U C116U A137G,-1.84
3,A30U C43G,≤ -4.2
4,U31C G34U A52U U56A A60G G84A G92A C95G C105A A110C G133C U148A,≤ -4.2
5,A30G C75A G94U A137C G143U A150U,≤ -4.2
6,U31C U55A U101C,0.401
7,U31C A60C C95A C99G A122G,-3.66
8,C32A A37U U56A G74A C76G G86A A115G G124A U151G,≤ -4.2
9,U31C G42A U44G A60G A66G U82A C85A G128A,≤ -4.2
10,A30U G70A G143C,≤ -4.2
11,A30U G58C C76A G94C U104G G136A,≤ -4.2
12,C32A A39U G58A C72U G80U G83A,≤ -4.2
13,U31A C87G C114A,-4.03
14,U31A A73C,-4.13
15,U31A U55A A147G,-0.55
16,A30U U56G G84A C96U A113C C125U U134A A142U,≤ -4.2
17,U31G C123G A142G,-1.12
18,A30G C57A,-2.9
19,U31A G81C C96G U111A G126A,≤ -4.2
20,U31C C63G G83A C96U,1.61
21,U31C C54A C93G,≤ -4.2
22,U31A G58C C75A C103U U109A A110G,≤ -4.2
23,A30U C32G C54A C57G C99U A107G,≤ -4.2
